# Test results reported in the nanobody polyreactivity screen of Harvey et al. (2022).
# Assay: yeast display, Sf9 membrane polyspecificity reagent, FACS + sequencing; frameworks hold sequencing errors
# Procedure, shortened: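 Genes from sorted yeast were amplified by colony PCR, read by MiSeq 2 × 250 sequencing and filtered on CDR length. These cells carried a synthetic nanobody library in Saccharomyces cerevisiae BJ5465 and were sorted by FACS into low and high (top ~1%) gates on anti-HA and streptavidin fluorescence. Polyreactivity is labelled according to the gate of origin.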
row,Sequence,polyreactivity (PSR sort gate)
1,QVQLLESGGGLVQAGRSLRLSCAASGRTFRIYAMGWYRQAPGKEREEVAAITRSSGSTFYADSVKGRFTISRDNAKNTVYLQMNSLKPEDTAVYYCAAEYFEWWVTYDYWGQGTQVTVSS,high polyreactivity
2,QVKLVESGGGLVQAGGSLRLSCAASGFTFYTYAMGWYRQAPGKETELFAAITGSGGRTYYADSVKGRFTISRDNAKNTVYLKMHSLKPEYTSLYYCAALYVYRPRTPYGYWGQGTQVTVSS,high polyreactivity
3,QVQLVESGGGLGHAGGSLRLSCAASGGIYDYYAMGWNRQAPGKERELVTAITRSGSSTFYADSVKGRFTISRDNAKNTVYLQMKSVKPEDTAVYYCAAPYYYFAVYYGYIFEYDYWGQGTQVTVSS,low polyreactivity
4,QVQLVESGGGLVQAGGSLRLSCAASGSIFYKYAMGWYRQAPGKEREFVAAITGSGVRTYYADSVKGRFTISRDNAKNTVYLQMNRLKPDDTAVYYCAASSYGYDYWGQGTQVTVSS,high polyreactivity
5,QVQIVESGGGLVQAGGSLRLSCAASGSTFYSYAMGWYRPAPGKERELVAGISYIGGRTYYADSVKGRFTISRDNAKNTVYLQMNSLKAEDTAVYDCAADQYGTTYGYWGHGTQVTVSS,high polyreactivity
6,QVQLVESGGGLVQAGGSLRLSCAASGSTFVRYVMGWYRQAPGKERELVAAISRRGGSTYYADSVKGRFTIARDNAKNTVYLQMNSLKPDDTAVYYCAAVYRLRGAFSRGYWGQGTQVTVSS,high polyreactivity
7,QVQLVESGGGLVQAGGSLRLSCAASGRTFVPYAMGWYIQAPGKEREFVAAISSRVGSTYYADSVKGRFTISRDNAKNTVYLQMKSLKPEDTAVYYCNAPFKPAGFYSAWKYDYWGQGTQVSVSS,low polyreactivity
8,QVQLVESGGGLVQAGGSLRIICAASGSIFVEYAMGWYRQAPGKERELVAAITYRGGSTYYADSVKGRFTISRDNAENTVYLQMNSLKPEDTAVYYCAAAVYYWGTSAYEYWGQGTQVTVSS,low polyreactivity
9,QVQLVESGGGLVQAGGSLRLSCAASGFTLAGYDMGWSRQAPGKERELVATLSTYADSVKGRFTISRDNAKNTVYLQMNSLKPEDTAVYYCAKKYVWTHNYWGQGTQVTVSS,low polyreactivity
10,QVQLVESVGGLVQAGGSLRLSCAASGSISIRNAMGWYRQAPGKERELVAAITYSGGSTYYADSVKGRFTISRDNAKNTVYLQMNSLKPEDTAVYYCNKDTYLATYLYDYWGQGTQVTVSS,low polyreactivity
11,QVQLVESGGGLVQAGGSLRLSCAASGGINGTYTMGWYRQAPGKEREMGAAISKRGGNTYYADSVKGRFTISRDNAKNTVYLQMNSLKPEDTAVYYCAKRVSGSPPTAGSLSDSWGQGTQVTVSS,high polyreactivity
12,QVQLVESGGGLVPARGSLRLSCAASGRTFGPYAMGWYRQAPGKERELVAAITDTGSGTYYADSVKGRFTISRDNSKNTVYLQMNSLKPVDTAVYYCNAVRKYWGQGTQVTVSS,low polyreactivity
13,QVQLVESGGGLVQAGGSLRLSCAASGGILDTYALGWYRQAPGKERELVAAITSGGNTNYADSVKGRFTISRDNAKNTVYLQMNSLKPEDTAVYYCAALYTVSYLTSPVSYRYDYWGQGSQVTVSS,low polyreactivity
14,QVQLVESGGGIVQAGGSLRLSCAASGFIFWKNAMGWYSQAPGKERELVAAISTRGGSTYYADSVKGRFTISRDNAKNTVYLQMNSLKPEDTAVYYCNKEWYPYKHNYWGQGTQVTVSS,low polyreactivity
15,QVQLVDSGGGLVQAGGSLRLSCAASGSTFITNTMGWDRQSPGKDRELVAAISQSGTRTYYANSVKGRFTISRDNAKNTVYLQMNSLKPEDTAVYYCAADRQRYTSSSRKGLGYCGQGTQVTVSS,high polyreactivity
16,QVQLVESGGGLVQAGGSLRLSCAASGITFQYYAMGWYRQAPGKERELVAAISGGGSTNYADSVKGRFTISRDNAKNTVYLQMNSLKPEDTAVYYCAAADLNLELDYWGQGTQVTVSS,high polyreactivity
17,QVQLVQSGGGLVQAGGSLRLSCAASGRIIGVNAMGWYRLAPGKERQLVADISSGRSTTYADSVKGRFTISRDNAKNTVYLQMNSLKPEDTALYYCNARFRFRYKFPSRHSWGQGSQVTVSS,high polyreactivity
18,QVQLEESGGGLVQAGGSLRLSCAASGSIFRRNVMGWYRQAPGKERELVAAISWSGDRTYYADSVKGRFTISRDNAKNTVYLQMNSLKPVGTAVYYCAAANASPRRYGQYDYWGQGTQVTVSS,high polyreactivity
19,QVQLVESGGGLVQAGGSLRLSCAASGRTIRGYAMGWYRQAPGKERELVAAITRSGGSTFADSVKGRFTISRDNAKNTVYLQMNSLKPEDTAVYYCAADRGYKYYYWGQGTQVTVSS,high polyreactivity
20,QVQLVESGGGLVQAGGSLRLSCAASGFTFHDYAMGWYRQAPGKERELVAAITKSGGRTYYADSVKGRFTISRDNAKNTVYLQMNSLKPEDTAVYYCNAVTLRRIYSNPEYDSWGQGTQVTVSS,high polyreactivity
21,QVQHVESGGGLVQAGGSLRLSCAASGRTYGYYAMGWYRQAPGKERELVAAITRTGGSTHYADSVKGRFTISRDNAKNTVYLQMNSLKPEDTAVYYFARTSRHVRYDYWGEGTQVTVSS,low polyreactivity
22,QVQLVESGGGLVQAGGSLRLSCAASGRTFSRYAMGWYRQAPGKERELVATISSSGGTTYYADSVKGRFTISRDNAKNTVYLQLNSLKPEDTAVSYCNSEYKIRTHASGFDYWGQGTQVTVSS,low polyreactivity

row,Sequence,polyreactivity (PSR sort gate)
1,QLQREESGGGLVQAGGSLRLSCAASGSTFEKNAMGWYRQAPAKERELVAALSNGVSTYDADSVKGRFPISRDNAKNSVYLLMNSLKPEDTAVYYCAADLFFGAETVYYAKFDYWGQGTQVTVSS,low polyreactivity
2,QVQLVESGGGLVQAGGSLRLSCAASGRTFTYYAMGWYIHAPGKERELVAAITWSGGSTYYADSVKGRFTISRDNAKNSVYLHMNSLKPEDTAVYYCNKTYRQGWSWVSYRSYGSGEGYWGQGTQVTVSS,high polyreactivity
3,QVQLVESGGGLVQAGGSLRLSCAASGRIWWNAMGWYRPAPGNETELVAAIRWSGGITRYADSVKGRFTISRDNAKNTVDLQMHSLKPEDTAVYYCAARLGGSIRSKFDYWGQGTQVTVSS,high polyreactivity
4,QVQLVESGGGLVQAGGSLRLSCAASGRIFGVNAMGWYRQAPGKERELVAAISRSGGSTYYADSVKGRFTISRDNAKNTVYLQMNSLKPEDTAVYYCAAVVKYRYSAYGGDYWRQGTQVTVSS,high polyreactivity
5,QVQLVESGVGLVQAGGSLRLSCAASGFTFYPYAMGWYRQAPGKERELVASITNGGSTNYADSVKGRFTISRDNAKNTVYLQMNSLKPEDTAVYYCTAAYGFYASRYWYASYDYWGQGTQVTVSS,low polyreactivity
6,QVQLVESGGGLVQAGGSLRLSCAASGFTFYRYAMGWYRQAPGKERELVAAISTSGGSTYYADSVKGRFTISRDNAKNTVYLQMNSLKPEDTAVYYCAASYYGKRDRAGPYYSFDYWGQGTQVTVSS,high polyreactivity
7,QVQLVESGGGLVQAGGSLRLSCAASGSIFGGNTMGWYRQAPGKERELVAAIRYSGGSTYYADSVKGRFTISRDNAKNTVYLQMNSLKPEDTAVYYCATSYRQYGYYWYDYWGQGTQVTVSS,high polyreactivity
8,QVQLVESGGGLVQAGGSLRLSCAASGFTFGHNDMGWYRQAPGKERELVASITQSGGSTYYADSVKGRFTISRDNAKNTVYLQMNSLKPEDTAVYYCAKDLYQSAFITKYDYWGQGTQVTVSS,low polyreactivity
9,QVQLVESGGGLVQAGGSLRLSCAASGRIFRSYAMGWYRQAPGKERELVAAISGSGGSTYYADSVKGRFTISRDNAKNTVYLQMNSLKPEDTAVYYCNRARGASYHGQSDYWGQGTQVTVSS,high polyreactivity
10,QVQLVESGGGSVQAGGSLRLCCAASGRILESYAMGWYRQAPGKERELVAAINSGASTYYADSVKGRFTISRDNAKNTVYLPMNSLKPEDTAVYYCAADYRYGAYDDWGQGTQVTVSS,low polyreactivity
11,QVQLVESGGGLVQAGGSLRLSCAACGFTFAYYAMGWYRQAPGKERELVATITSGGRTYYADSVKGRFTISRDNAKNTVYFQMNSLKPEDTAVYYCAGAGKGRYHFRSTMDYWGQGTQVTVSS,high polyreactivity
12,QVQHVDSVGGLVQAGRSLRLICAASGSTFTSYTKGWYRQAPLKERELVDRITRGGGSTYYADSVKGRFTISRDNAKNTVYLQMNSLKQEDTAVYYCAKHVVGSAYYSWGQGTQVTVSS,low polyreactivity
13,QVQLVESGGGLVQAGGRLRLSCAASGSIFGFYAMGWYRPAPGKERELVAGISVSDGSTYYADSVKGRFTISRDNAKNTVYLQMNSLKPEDTAVYYCAASPRGSYGYYYWGQGTQVTVSS,low polyreactivity
14,QVQLVESGGGLVQAGGSLRLSCAASGRIFLVYAMGWYRQAPGKERELVAAISYSGGRTYYADSVKGRFTISRDNAKNTVYLQMNSLKPEDTAVYYCAAKRITYYGGGRFYYWGQGTQVTVSS,high polyreactivity
15,QVQLVESGGGLVQAGGSLRLSCAASGRILSTYAMGWYRQAPGKERELVAVISWTGGRTYYADSVKGRFTISRYNAKNTVYLQMNSLKPEDTAVYYCNARPYYGGTRGRQYEYGYWGQGSQVTVSS,high polyreactivity
16,QVQLVESGGGLVQAGGSLRLSCAASGRICKRNAMGWYRQAPGKERELVAAITWSGGSTYYADSVKGRFTISRDNAKNTVYLQMNSLKPEDTAVYYCAALRVQGDYDYWGQGTQVTVSS,high polyreactivity
17,QVQLEESGGGLVQAGGSLRLSCAASGSIFHYYTMGWYRQAPGKERELVAAITSSGGSTYYADSVKGRFTISRDNAKNTVYLQMNSLKPEDTAVYYCNKVRYRGYLYVPIYVGYNYWGQGTQVTVSS,high polyreactivity
18,QVQLVESVRRLVQAGGSLRLSCAASGSIYYPYAMGWYRQAPGKEMELVAAITGHGGSTYYADSVKGRFTISRDNAKNTVYLQMNSLNPEDTAVYYCATGGYQPVLHRGYYRFNYWGQGTQVTVSS,low polyreactivity
19,QVQLVESGGGLVQAGGSLRLSCAASGSIFVNYAMGWYRQAPGKERELVAAISRSGGRTYYADSVKGRFTISRDNAKNTVYLQMNSLKPEDTAVYDCNVYPVLRTIEGDYWGQGTQVTVSS,high polyreactivity
20,QVQLVESGGGLVQAGGSLRLSCAASGRIFSNNAMGWYRQAPGKERELVAAISWNGGRTYYADSVKGRFTISRDNAKNTVYLQMNSLKPEDTAVYYCAAGRYDYWGQGTQVTVSS,high polyreactivity
21,QVQLVESGGGLVQAGGSLRLSCAASGIIFGRYAMGWYRQAPGKERELVAAINASGGSTYYADSVKGRFTISRDNAKNTVYLQMNSLKPEDTAVYYCATRSTRSRTSGYYYWGQGTQVTVSS,high polyreactivity
